Measurements published in publication PMC11621822.

Molecular target: recombinant heat shock protein 70 cognate 3 (Hsc70-3), protein encoded by AAEL017349 (Aedes aegypti)
Experiment: ELISA

EC50: 70.7 nM
Substance: recombinant E protein Receptor (EPrRec), protein encoded by AAEL011180 (natural protein)
